B1: KRT15 (parent)
chain: SNFHINVEESVDGQVVSSHKREI
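Further: lentivirally expressed fusions sorted by FACS into six bins by GFP to DsRed ratio, PSI derived from sequencing read proportions per bin multiplied by bin number.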

Variants of B1 are the subject of this data set. The data set is described as follows: protein stability index of a GFP-peptide fusion (GPS, HEK-293T) (PSI 1-6); higher = more stable. The following applies: c terminus: native.
Take SNFHINVEESSDGQVVSSHKREI [V11S]: the protein stability index was determined as 2.48.

With SNFHINVEESWDGQVVSSHKREI [V11W], the protein stability index worked out at 1.86.

For SNFHINVEESPDGQVVSSHKREI [V11P], the protein stability index came to 2.33.

Consider SNFHINVEESQDGQVVSSHKREI [V11Q], for which the protein stability index amounted to 2.3.

In the case of SNFHINVEESTDGQVVSSHKREI [V11T], the protein stability index was 1.67.

For the variant SNFHINVEESYDGQVVSSHKREI [V11Y], the protein stability index came to 1.44.

On to SNFHINVEESRDGQVVSSHKREI [V11R], for which the protein stability index is 1.46.

Take SNFHINVEESVDGQVVSSHKRLI [E22L]: the protein stability index was 4.53.

Turning to SNFHINVEESVDGQVVSSHKRDI [E22D], the protein stability index was determined as 4.97.

For SNFHINVEESVDGQVVSSHKRMI [E22M], the protein stability index worked out at 4.05.

SNFHINVEESVDGQVVSSHKRPI [E22P]: the protein stability index was determined as 4.74.

For SNFHINVEESVDGQVVSSHKRQI [E22Q], the protein stability index is 4.37.

Consider SNFHINVEESVDGQVVSSHKRTI [E22T], for which the protein stability index came to 4.46.

With SNFHINVEESVDGQVVSSHKRWI [E22W], the protein stability index is 3.94.

For the variant SNFHINVEESVDGQVVSSHKRRI [E22R], the protein stability index was found to be 2.87.

For SNFHINVEESVDGQVVSSHKRII [E22I], the protein stability index came to 4.12.

Consider SNFHINVEESVDGQVVSSHKRHI [E22H], for which the protein stability index was 4.64.

Turning to SNFHINVEESVDGQVVSSHKRAI [E22A], the protein stability index worked out at 4.63.

For the variant SNFHINVEESVDGQVVSSHKRFI [E22F], the protein stability index amounted to 4.19.

Regarding SNFHINVEESVDGQVVSSHKRYI [E22Y], the protein stability index turned out to be 4.1.

With SNFHINVEESVDGQVVSSHKRGI [E22G], the protein stability index came out at 5.28.

Turning to SNFHINVEESVDGQVVSSHKRNI [E22N], the protein stability index worked out at 4.82.

Regarding SNFHINVEESVDGQVVSSHKRKI [E22K], the protein stability index amounted to 4.82.

With SNFHINVEESVDGQVVSSHKRSI [E22S], the protein stability index was 3.52.

In the case of SNFHINVEESVDGQVVSSHKRCI [E22C], the protein stability index was 4.59.

Take SNFHINVEESVDGQVVSSHCREI [K20C]: the protein stability index turned out to be 2.39.

Take SNFHINVEESVDGQVVSSHVREI [K20V]: the protein stability index was determined as 2.4.

For SNFHINVEESVDGQVVSSHFREI [K20F], the protein stability index worked out at 2.07.

Regarding SNFHINVEESVDGQVVSSHTREI [K20T], the protein stability index came to 3.08.

Consider SNFHINVEESVDGQVVSSHRREI [K20R], for which the protein stability index is 3.06.

As for SNFHINVEESVDGQVVSSHNREI [K20N], the protein stability index stood at 5.38.

Regarding SNFHINVEESVDGQVVSSHMREI [K20M], the protein stability index came out at 3.15.

As to SNFHINVEESVDGQVVSSHDREI [K20D], the protein stability index was 3.86.

In the case of SNFHINVEESVDGQVVSSHPREI [K20P], the protein stability index is 1.94.

Consider SNFHINVEESVDGQVVSSHQREI [K20Q], for which the protein stability index is 2.77.

Turning to SNFHINVEESVDGQVVSSHGREI [K20G], the protein stability index stood at 3.06.

With SNFHINVEESVDGQVVSSHAREI [K20A], the protein stability index was 3.58.

On to SNFHINVEESVDGQVVSSHIREI [K20I], for which the protein stability index amounted to 2.45.

As to SNFHINVEESVDGQVVSSHYREI [K20Y], the protein stability index is 2.18.

Take SNFHINVEESVDGQVVSSHHREI [K20H]: the protein stability index was 2.51.

On to SNFHINVEESVDGQVVSSHLREI [K20L], for which the protein stability index was found to be 1.39.

In the case of SNFHINVEESVDGQVVSSHEREI [K20E], the protein stability index was 1.49.

Turning to SNFHINVEESVDGQVVSSHWREI [K20W], the protein stability index was 3.4.

SNFHINVEESVDGIVVSSHKREI [Q14I]: the protein stability index was determined as 1.55.

Turning to SNFHINVEESVDGAVVSSHKREI [Q14A], the protein stability index is 2.04.

SNFHINVEESVDGPVVSSHKREI [Q14P]: the protein stability index turned out to be 2.34.

For the variant SNFHINVEESVDGDVVSSHKREI [Q14D], the protein stability index turned out to be 2.33.

For SNFHINVEESVDGMVVSSHKREI [Q14M], the protein stability index worked out at 1.32.

Regarding SNFHINVEESVDGRVVSSHKREI [Q14R], the protein stability index came out at 2.01.

On to SNFHINVEESVDGHVVSSHKREI [Q14H], for which the protein stability index amounted to 1.6.

Consider SNFHINVEESVDGKVVSSHKREI [Q14K], for which the protein stability index turned out to be 2.35.

Take SNFHINVEESVDGYVVSSHKREI [Q14Y]: the protein stability index turned out to be 1.72.

Take SNFHINVEESVDGTVVSSHKREI [Q14T]: the protein stability index came to 2.12.

Consider SNFHINVEESVDGCVVSSHKREI [Q14C], for which the protein stability index came to 2.21.

As for SNFHINVEESVDGLVVSSHKREI [Q14L], the protein stability index stood at 1.65.

In the case of SNFHINVEESVDGFVVSSHKREI [Q14F], the protein stability index is 1.99.

Consider SNFHINVEESVDGSVVSSHKREI [Q14S], for which the protein stability index was determined as 1.94.

For SNFHINVEESVDGNVVSSHKREI [Q14N], the protein stability index is 2.05.

In the case of SNFHINVEESVDGQVVSSHKREE [I23E], the protein stability index stood at 2.44.

In the case of SNFHINVEESVDGQVVSSHKREA [I23A], the protein stability index was 4.14.

For SNFHINVEESVDGQVVSSHKRED [I23D], the protein stability index worked out at 4.89.

Regarding SNFHINVEESVDGQVVSSHKREF [I23F], the protein stability index came out at 4.74.

With SNFHINVEESVDGQVVSSHKREC [I23C], the protein stability index was found to be 4.94.

For SNFHINVEESVDYQVVSSHKREI [G13Y], the protein stability index was 2.59.

In the case of SNFHINVEESVDDQVVSSHKREI [G13D], the protein stability index came out at 2.36.

Turning to SNFHINVEESVDAQVVSSHKREI [G13A], the protein stability index was determined as 2.73.

Take SNFHINVEESVDFQVVSSHKREI [G13F]: the protein stability index worked out at 1.86.

In the case of SNFHINVEESVDQQVVSSHKREI [G13Q], the protein stability index was found to be 1.96.

Consider SNFHINVEESVDHQVVSSHKREI [G13H], for which the protein stability index came out at 1.64.

Turning to SNFHINVEESVDRQVVSSHKREI [G13R], the protein stability index is 2.35.

Turning to SNFHINVEESVDTQVVSSHKREI [G13T], the protein stability index worked out at 2.18.

Take SNFHINVEESVDLQVVSSHKREI [G13L]: the protein stability index was 1.78.

On to SNFHINVEESVDKQVVSSHKREI [G13K], for which the protein stability index worked out at 2.29.

As to SNFHINVEESVDIQVVSSHKREI [G13I], the protein stability index came out at 2.02.

In the case of SNFHINVEESVDSQVVSSHKREI [G13S], the protein stability index worked out at 1.81.

Consider SNFHINVEESVDNQVVSSHKREI [G13N], for which the protein stability index amounted to 2.3.

Turning to SNFHINVEESVDCQVVSSHKREI [G13C], the protein stability index is 1.98.

As for SNFHINVEESVDPQVVSSHKREI [G13P], the protein stability index was 2.19.

As to SNFHINVEESVDEQVVSSHKREI [G13E], the protein stability index was 1.89.

On to SNFHINVEESVDVQVVSSHKREI [G13V], for which the protein stability index is 1.55.

On to SNFHINVEESVDGQQVSSHKREI [V15Q], for which the protein stability index came out at 2.78.

As to SNFHINVEESVDGQMVSSHKREI [V15M], the protein stability index came out at 4.02.

For SNFHINVEESVDGQAVSSHKREI [V15A], the protein stability index stood at 1.71.

Consider SNFHINVEESVDGQEVSSHKREI [V15E], for which the protein stability index is 2.23.

As to SNFHINVEESVDGQIVSSHKREI [V15I], the protein stability index was found to be 2.11.

As to SNFHINVEESVDGQHVSSHKREI [V15H], the protein stability index was found to be 1.83.

For the variant SNFHINVEESVDGQTVSSHKREI [V15T], the protein stability index is 2.31.

Turning to SNFHINVEESVDGQFVSSHKREI [V15F], the protein stability index amounted to 1.96.

For the variant SNFHINVEESVDGQLVSSHKREI [V15L], the protein stability index was found to be 1.78.

Consider SNFHINVEESVDGQGVSSHKREI [V15G], for which the protein stability index is 2.67.

As for SNFHINVEESVDGQYVSSHKREI [V15Y], the protein stability index was found to be 2.12.

As for SNFHINVEESVDGQPVSSHKREI [V15P], the protein stability index was found to be 2.84.

Turning to SNFHINVEESVDGQNVSSHKREI [V15N], the protein stability index turned out to be 2.52.

For the variant SNFHINVEESVDGQSVSSHKREI [V15S], the protein stability index stood at 3.12.

With SNFHINVEESVDGQDVSSHKREI [V15D], the protein stability index amounted to 2.82.

As for SNFHINVEESVDGQCVSSHKREI [V15C], the protein stability index came to 1.48.

As for SNFHINVEESVDGQVFSSHKREI [V16F], the protein stability index was 2.63.
